The values below come from patent US6359194 (Takeda / Millennium, dated 2002).

The labels stand for the following.
B2: fchd540 protein fused to a flag peptide (transfected 293 cells or BAECs) (other, human, UniProt O15105 1-426, looked up)
chain: MFRTKRSALVRRLWRSRAPGGEDEEEGAGGGGGGGELRGEGATDSRAHGAGGGGPGRAGCCLGKAVRGAKGHHHPHPPAAGAGAAGGAEADLKALTHSVLKKLKERQLELLLQAVESRGGTRTACLLLPGRLDCRLGPGAPAGAQPAQPPSSYSLPLLLCKVFRWPDLRHSSEVKRLCCCESYGKINPELVCCNPHHLSRLCELESPPPPYSRYPMDFLKPTADCPDAVPSSAETGGTNYLAPGGLSDSQLLLEPGDRSHWCVVAYWEEKTRVGRLYCVQEPSLDIFYDLPQGNGFCLGQLNSDNKSQLVQKVRSKIGCGIQLTREVDGVWVYNRSSYPIFIKSATLDNPDSRTLLVHKVFPGFSIKAFDYEKAYSLQRPNDHEFMQQPWTGFTVQISFVKGWGQCYTRQFISSCPCWLEVIFNSR
notes: Co-immunoprecipitation construct; not shown: flag peptide (different from that on rchd534)

Series [1] has as its target B2. Nature of the series: co-immunoprecipitation, BAECs against 293 cells, equal amounts of protein. Here is the method: (§1) The interaction of the rchd534 and fchd540 proteins, observed in yeast cells as described above, was tested in mammalian endothelial cell tissue culture. Either bovine aortic endothelial cells (BAECs) or 293 cells (human embryonic kidney cells, ATCC Accession No. CRL-1573) were transfected with constructs encoding both the rchd534 and fchd540 proteins, each fused to a different flag peptide allowing for specific immunoprecipitation. […] The co-immunoprecipitation of rchd534 and fchd540 further supports that these proteins interact in human cells that are physiologically relevant to cardiovascular disease.
The ability of the rchd534 and fchd540 proteins to interact with themselves and with other protein members of the TGF-β signalling pathway (MADR1, MADR2, DPC4, TbR1, TSR1, ActR1b, ALK3, ALK6), was tested using this co-inmunoprecipitation method. Each gene was transfected alone and in various combinations with other TGF-β pathway genes in either 293 cells or BAECs. The rchd534 protein formed homodimers in 293 cells and BAECs. […] As mentioned above, the rchd534 and fchd540 proteins formed heterodimers in 293 cells and BAECs. This interaction is about 50 fold stronger in BAECs than 293 cells based on equal amounts of protein.

Series [2] concerns the molecule itself. Nature of the series: co-immunoprecipitation from transfected 293 cells or BAECs. The procedure:
as §1

For series [3], the target named is T1, GAL4 DNA-binding domain-fchd540 fusion (human, UniProt P04386 1-147; O15105 1-426).
T1 construct: Yeast two-hybrid bait; also called fchd540 bait protein; pGBT9-fchd540
Nature of the series: yeast two-hybrid mating assay (HIS3 and lacZ reporters). The text has this:
(§2) Yeast expression plasmids encoding the GAL4 DNA-binding domain either alone or fused in frame to fchd540, rchd534, Drosophilia MAD, DPC4, or p53 were transformed into MATa two-hybrid screening strain HF7c. Yeast expression plasmnids encoding the GAL4 transcriptional activation domain alone and GAL4 activation domain fusions to rchd534 and SV40 were transformed into MATα two-hybrid screening strain Y1 87. p53 and SV40 interact with each other and should not interact with the experimental proteins. The HF7c transformants were propagated as stripes on semisolid synthetic complete medium lacking L-tryptophan and the Y187 transformants were grown as stripes on semisolid synthetic complete medium lacking L-leucine. Both sets of stripes were replica plated in the form of a grid onto a single rich YPAD plate and the haploid strains of opposite mating types were allowed to mate overnight at 30° C. The yeast strains on the mating plate were then replica plated to a synthetic complete plate lacking L-leucine and L-tryptophan to select for diploids and incubated at 30° C. overnight. Diploid strains on the synthetic complete plate lacking L-leucine and L-tryptophan were replica plated to a synthetic complete plate lacking L-leucine, L-tryptophan, and L-histidine to assay HIS3 expression and a paper filter on a synthetic complete plate lacking L-leucine and L-tryptophan. The next day the paper filter was subjected to the paper filter beta-galactosidase assay to measure expression of the lacZ reporter gene. HIS3 expression was scored after 3 days of growth at 30° C.
(§3) It was confirmed that these rchd534 cDNAs encode proteins that physically interact specifically with fchd540. Yeast expression plasmids encoding the GAL4 DNA-binding domain either alone or fused in frame to fchd540, rchd534, Drosophila MAD, DPC4, and p53 were transformed into MATa two-hybrid screening strain HF7c. Yeast expression plasmids encoding the GAL4 transcriptional activation domain (GAL4 AD) alone and GAL4 activation domain fusions to tchv03a, tchvR4A and SV40 were transformed into MATα two-hybrid screening strain Y1 87. p53 and SV40 interact with each other and should not interact with the experimental proteins. The HF7c transformants were propagated as stripes on semi-solid synthetic complete medium lacking […].

Series [4] concerns the target T2, GAL4 DNA-binding domain alone (UniProt P04386 1-147).
T2 construct: Two-hybrid control
Described as above.
Text: as §2, §3

Series [5] concerns the target T3, GAL4 DNA-binding domain fusion to rchd534 (human, UniProt P04386 1-147; O43541 1-235, limits assumed).
T3 construct: Yeast two-hybrid bait; also called rchd534 bait protein
The series is described as above.
Text: as §2, §3

Series [6] concerns the target T4, GAL4 DNA-binding domain fusion to Drosophila MAD (Drosophila, UniProt P04386 1-147; P42003 1-455, limits assumed).
T4 construct: Yeast two-hybrid bait; also called Dros; MAD; MAD bait protein
Described as above.
Text: as §2, §3

In series [7] the target is T5, GAL4 DNA-binding domain fusion to DPC4 (UniProt P04386 1-147; Q13485 1-552, limits assumed).
T5 construct: Yeast two-hybrid bait; also called DPC4 bait protein
The description is as above.
Text: as §2, §3

B1: rchd534 protein fused to a flag peptide (transfected 293 cells or BAECs) (other, human, UniProt O43541-2 1-235, looked up)
chain: MSRMGKPIETQKSPPPPYSRLSPRDEYKPLDLSDSTLSYTETEATNSLITAPGEFSDASMSPDATKPSHWCSVAYWEHRTRVGRLYAVYDQAVSIFYDLPQGSGFCLGQLNLEQRSESVRRTRSKIGFGILLSKEPDGVWAYNRGEHPIFVNSPTLDAPGGRALVVRKVPPGYSIKVFDFERSGLQHAPEPDAADGPYDPNSVRISFAKGWGPCYSRQFITSCPCWLEILLNNPR
notes: Co-immunoprecipitation construct; also called Smad6; not shown: flag peptide for immunoprecipitation
On to B1, for which the “fold stronger interaction in BAECs than in 293 cells” value in series [1] is approximately 50 fold.
Turning to B2, in series [2], the binding result was “no binding”.

B3: GAL4 transcriptional activation domain alone (other, UniProt P04386 768-881, looked up)
chain: ANFNQSGNIADSSLSFTFTNSSNGPNLITTQTNSQALSQPIASSNVHDNFMNNEITASKIDDGNNSKPLSPGWTDQTAYNAFGITTGMFNTTTMDDVYNYLFDDEDTPPNPKKE
notes: Two-hybrid control; also called GAL4 AD alone; GAL4 AD
Take B3: the binding result in series [3], in series [4], in series [5], in series [6] and in series [7] was “no binding” in each case.
